Experimental findings from patent publication US7189515 are described below.

In this assay the target is T1, mature human interleukin-8 with C-terminal hexahistidine (human, UniProt P10145 21-99, biotin-XX (NHS ester labelling) in the affinity determination of Example 21; unlabelled in Examples 27 and 34).
T1 construct: mature; also called IL-8; IL8
T1 sequence: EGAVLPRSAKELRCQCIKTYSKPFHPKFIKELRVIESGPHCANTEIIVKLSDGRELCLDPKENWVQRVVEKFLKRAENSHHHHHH
The assay is described as follows: BIACORE two-site assay, blank-subtracted; IL-8 held by primary antibody (competitor) M1-10. As for the experimental part: A BIACORE® 3000 instrument (Biacore AB, Uppsala, Sweden) was used to measure the epitope binding.
Each antibody was diluted to 100 µg/mL and the IL-8 was diluted to 1 µM in 10 mM N-2-hydroxyethylpiperazine-N'-2-ethane-sulfonic acid, 150 mM sodium chloride, 3 mM EDTA, 0.005% polysorbate 20, pH 7.4 (HBS-EP, Biacore AB, Uppsala, Sweden). […] IL-8 (10 µL) was then bound to the primary antibody in all 4 channels. One secondary antibody (10 µL) was passed through one channel each. The resonance units of the secondary antibodies were measured 20 seconds after the injection was over. Blank resonance unit values for each primary/secondary antibody combination were obtained by injecting HBS-EP instead of IL-8 and these were subtracted from the resonance units measured for the corresponding primary/secondary antibody pairing that was contacted with IL-8. Blocking antibody injections were not done.

B1: M1-10 (Fab)
heavy: QVQLVQSGGGLVHPGGSLRLSCEGSGFIFRNHPIHWVRQAPGKGLEWVSVSGIGGDTYYADSVKGRFSISRDNAKNSLYLQMNSLRAEDMAVYYCAREYYYGSGSYRVDYYYYGMDVWGQGTTVTVSSASTKGPSVFPLAPSSKSTSGGTAALGCLVKDYFPEPVTVSWNSGALTSGVHTFPAVLQSSGLYSLSSVVTVPSSSLGTQTYICNVNHKPSNTKVDKKAEPKSHHHHHH
light: not shown
notes: also called monoclonal human antibody M1-10; M1_10H
For the molecule B1, the “Resonance Units” value was -17 RU.

B2: M1-21 (Fab)
heavy: QVQLVQSGGGVVQPGKSLRLSCAASGFTFSYYGMHWVRQVPGKGLEWVAAVWYDGSTTYSPDSVKGRFTISRDDSKNTLYLQMSSLRAEDTAVYYCARDRVGLFDYWGQGTLVTVSSASTKGPSVFPLAPSSKSTSGGTAALGCLVKDYFPEPVTVSWNSGALTSGVHTFPAVLQSSGLYSLSSVVTVPSSSLGTQTYICNVNHKPSNTKVDKKAEPKSHHHHHH
light: not shown
notes: also called monoclonal antibody M1-21; M1_21H
Consider B2, for which the “Resonance Units” value came out at 706 RU.
